The record followed here is article PMC11880322.

The data set has as its target ∆14-PrfaH (IncX3 plasmid pHNYX644 …, UniProt A0A0C5EQ24 1-155). Put plainly: EMSA.

B1: ss-W1 (ssDNA)
DNA: AAAGATTCGGGGTCATCCGAGTCGAGAGAGCGCCTG
For B1, the binding result is “binds”.

B2: ss-W9 (ssDNA)
DNA: TCTGATTCGGGGTCATCCGAGTCGAAAGAGCGCCTG
Consider B2, for which the binding result is “binds”.

B3: ss-W11 (ssDNA)
DNA: TCTGATTCGGGGTCATCCGAGTCGAGAGAGAAACTG
With B3, the binding result is on record as “binds”.

B4: ss-W10 (ssDNA)
DNA: TCTGATTCGGGGTCATCCGAGTCGAGAAAACGCCTG
Regarding B4, the binding result is on record as “binds”.

B5: ss-W2 (ssDNA)
DNA: TCTAAATCGGGGTCATCCGAGTCGAGAGAGCGCCTG
With B5, the binding result was “binds”.

B6: ss-W12 (ssDNA)
DNA: TCTGATTCGGGGTCATCCGAGTCGAGAGAGCGCAAA
Regarding B6, the binding result is reported as “binds”.
